Data from patent US20240239915A1 (Zymeworks, published 2024).

Experiments:
[1] = molecular target: T1, human FcRn (human neonatal Fc receptor large subunit p51 and beta2-microglobulin), biotinylated (human, UniProt P55899 24-297; P61769 21-119, biotinylated (site not stated)); assay: BLI (Octet RED384), biotinylated FcRn on streptavidin biosensor, binding at pH 6.0, dissociation at pH 7.4
[2] = molecular target: T1, human FcRn (human neonatal Fc receptor …); assay: BLI (Octet RED384), biotinylated FcRn on streptavidin biosensor, binding and dissociation at pH 6.0
[3] = molecular target: T2, Recombinant Human Fc gamma RIIA/CD32a (H167) Protein (R&D Systems), His-tagged (human, UniProt P12318 34-218); assay: SPR (Biacore T200); receptor immobilized directly on CM5 chip, antibody as analyte at 4.7 µM
T2 construct: also called human FcγRIIa (H167); hFcγRIIa (H167)
T2 sequence: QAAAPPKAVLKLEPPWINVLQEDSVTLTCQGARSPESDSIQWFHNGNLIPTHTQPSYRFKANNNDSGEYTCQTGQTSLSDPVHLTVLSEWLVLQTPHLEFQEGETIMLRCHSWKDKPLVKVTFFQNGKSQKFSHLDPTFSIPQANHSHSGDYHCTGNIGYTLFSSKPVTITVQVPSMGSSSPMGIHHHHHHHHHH

[4] = molecular target: T3, Recombinant Human Fc gamma RIIIB/CD16b Protein (R&D Systems), His-tagged (human, UniProt O75015 20-208); assay: as above
T3 construct: also called human FcγRIIIb; hFcγRIIIb
T3 chain: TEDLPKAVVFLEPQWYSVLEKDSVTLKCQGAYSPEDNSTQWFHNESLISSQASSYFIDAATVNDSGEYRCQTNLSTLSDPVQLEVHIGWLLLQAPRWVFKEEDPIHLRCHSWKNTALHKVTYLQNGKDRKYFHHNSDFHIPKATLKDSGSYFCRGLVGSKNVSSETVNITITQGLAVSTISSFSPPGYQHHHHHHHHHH

[5] = molecular target: T4, Recombinant Human Fc gamma RIIIA/CD16a protein (R&D Systems), His-tagged (human, UniProt P08637 17-208); assay: as above
T4 construct: also called human FcγRIIIa; hFcγRIIIa
T4 sequence (P08637 other isoform, or with tags, fused parts or gaps): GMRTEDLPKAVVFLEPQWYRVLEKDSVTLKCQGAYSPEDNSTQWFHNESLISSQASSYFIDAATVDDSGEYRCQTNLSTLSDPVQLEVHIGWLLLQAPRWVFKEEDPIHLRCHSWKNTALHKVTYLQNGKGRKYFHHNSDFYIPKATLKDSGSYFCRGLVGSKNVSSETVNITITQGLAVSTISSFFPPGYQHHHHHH

[6] = molecular target: T5, Recombinant Human Fc gamma RIIB/C (CD32b/c) Protein (R&D Systems), His-tagged (human, UniProt P31994 46-217); assay: as above
T5 construct: also called human FcγRIIb/c; hFcγRIIb/c
T5 sequence: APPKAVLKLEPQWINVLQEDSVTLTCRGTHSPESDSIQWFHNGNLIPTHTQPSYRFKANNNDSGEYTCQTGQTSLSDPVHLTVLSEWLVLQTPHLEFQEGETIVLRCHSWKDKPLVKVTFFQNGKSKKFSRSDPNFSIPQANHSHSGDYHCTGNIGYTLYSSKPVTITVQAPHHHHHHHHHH

[7] = molecular target: T6, Recombinant Human Fc gamma RIIIA/CD16a (V176F) Protein (R&D Systems), His-tagged (human, UniProt P08637 17-208); assay: as above
T6 construct: no further substitution applied; also called human FcγRIIIa (V176F); hFcγRIIIa (V176F)
T6 sequence (P08637 other isoform, or with tags, fused parts or gaps V176F V176F): as the sequence (P08637 other isoform, or with tags, fused parts or gaps) above, with V160F counted along it

[8] = molecular target: T2, Recombinant Human Fc gamma RIIA/CD32a …; assay: SPR (Biacore T200), RU at 4.7 µM antibody
[9] = molecular target: T7, Recombinant Human Fc gamma RI/CD64 Protein, CF (R&D Systems), His-tagged (human, UniProt P12314 16-288); assay: SPR (Biacore T200), RU at 4.7 µM antibody
T7 construct: also called human FcγRI; hFcγRI
T7 sequence (P12314 other isoform, or with tags, fused parts or gaps): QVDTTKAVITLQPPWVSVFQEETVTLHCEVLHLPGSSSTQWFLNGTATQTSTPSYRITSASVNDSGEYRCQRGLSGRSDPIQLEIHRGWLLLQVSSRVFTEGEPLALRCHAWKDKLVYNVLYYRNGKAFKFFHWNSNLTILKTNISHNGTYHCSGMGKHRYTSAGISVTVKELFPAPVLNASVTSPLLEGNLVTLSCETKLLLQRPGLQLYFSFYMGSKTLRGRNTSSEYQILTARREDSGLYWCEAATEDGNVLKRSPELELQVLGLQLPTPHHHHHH

[10] = molecular target: T8, Recombinant Cynomolgus Fc gamma RIII/CD16 Protein (R&D Systems), His-tagged (cynomolgus, UniProt Q8SPW2 17-208); assay: SPR (Biacore T200); receptor immobilized directly on CM5 chip, antibody as analyte at 4.7 µM
T8 construct: also called cynomolgus FcγRIII; cFcγRIII
T8 chain: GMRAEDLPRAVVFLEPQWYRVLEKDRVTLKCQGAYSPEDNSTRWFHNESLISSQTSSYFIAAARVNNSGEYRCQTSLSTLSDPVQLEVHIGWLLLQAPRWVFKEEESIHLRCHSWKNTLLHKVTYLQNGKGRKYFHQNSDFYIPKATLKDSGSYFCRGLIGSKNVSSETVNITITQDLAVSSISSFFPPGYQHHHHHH

[11] = molecular target: T9, Recombinant Cynomolgus Fc gamma RIIB protein (R&D Systems), His-tagged (cynomolgus); assay: as above
T9 construct: also called cynomolgus FcγRIIb; cFcγRIIb
T9 chain: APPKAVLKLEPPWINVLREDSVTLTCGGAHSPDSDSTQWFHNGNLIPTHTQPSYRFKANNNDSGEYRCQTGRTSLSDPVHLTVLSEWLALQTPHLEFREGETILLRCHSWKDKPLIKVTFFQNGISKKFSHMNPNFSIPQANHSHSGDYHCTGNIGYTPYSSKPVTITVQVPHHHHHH

[12] = molecular target: T10, Recombinant Cynomolgus Fc gamma RIIA/CD32a Protein (R&D Systems), His-tagged (cynomolgus); assay: as above
T10 construct: also called cynomolgus FcγRIIa; cFcγRIIa
T10 chain: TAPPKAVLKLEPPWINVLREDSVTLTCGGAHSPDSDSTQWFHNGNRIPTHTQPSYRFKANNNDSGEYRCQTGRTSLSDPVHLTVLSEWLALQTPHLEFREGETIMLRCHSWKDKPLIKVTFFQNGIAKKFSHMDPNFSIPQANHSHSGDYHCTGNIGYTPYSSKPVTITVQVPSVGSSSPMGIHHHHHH

koff [1]: 2.2 s⁻¹ | Kd [2]: 5.8 nM | binding response (RU) [3]: 8.8 RU | binding response (RU) [4]: -0.3 RU | binding response (RU) [5]: -2.7 RU | binding response (RU) [6]: 15 RU | binding response (RU) [7]: -4.4 RU | RU value relative to the other variants [8]: ≤ 0.5 fold | RU value relative to the LALA-DA variant [9]: ~0.1 fold | binding response (RU) [10]: 3.8 RU | binding response (RU) [11]: 89 RU | binding response (RU) [12]: 19 RU
B1: L234A/L235A/D265G (LALA-DG) variant of IgG1 WT of the anti-EGFR antibody panitumumab (antibody)
heavy: QVQLQESGPGLVKPSETLSLTCTVSGGSVSSGDYYWTWIRQSPGKGLEWIGHIYYSGNTNYNPSLKSRLTISIDTSKTQFSLKLSSVTAADTAIYYCVRDRVTGAFDIWGQGTMVTVSSASTKGPSVFPLAPSSKSTSGGTAALGCLVKDYFPEPVTVSWNSGALTSGVHTFPAVLQSSGLYSLSSVVTVPSSSLGTQTYICNVNHKPSNTKVDKRVEPKSCDKTHTCPPCPAPEAAGGPSVFLFPPKPKDTLMISRTPEVTCVVVGVSHEDPEVKFNWYVDGVEVHNAKTKPREEQYNSTYRVVSVLTVLHQDWLNGKEYKCKVSNKALPAPIEKTISKAKGQPREPQVYTLPPSREEMTKNQVSLTCLVKGFYPSDIAVEWESNGQPENNYKTTPPVLDSDGSFFLYSKLTVDKSRWQQGNVFSCSVMHEALHNHYTQKSLSLSPGK
light: not shown
notes: Mutations in both CH2 domains; positions are EU numbers
